{"source": "patent US20040235002A1", "about": "“Multiplex screening assays” (Sangamo BioSciences, Inc., priority 2002, published 2004)", "key": {"[1]": {"system": "ZFP734-FXR LBD (synthetic/human)", "assay": "cell_activity", "details": "Kip2 mRNA, 100 nM CDCA vs untreated, HEK293"}, "[2]": {"system": "ZFP757-ERalpha LBD (synthetic/human)", "assay": "cell_activity", "details": "AnxA8 mRNA, 100 nM 17beta-estradiol vs untreated, HEK293"}, "[3]": {"system": "ZFP1727-TRbeta LBD (synthetic/human)", "assay": "cell_activity", "details": "GRP mRNA, 100 nM T3, HEK293"}, "ERα and ERβ": {"system": "ERα and ERβ", "details": "Barkham et al. (1998) Molecular Pharmacology, 54:105-112; cited from earlier work"}}, "data": [{"molecule": "GGGGCTGGGT (double strand) [kip2 site (ZFP734)]", "values": [{"measurement": "activity", "setting": "[1]", "result": 3.5, "unit": "fold"}]}, {"molecule": "CGGGCGGCTG (double strand) [anxA8 site (ZFP757)]", "values": [{"measurement": "activity", "setting": "[2]", "result": 12, "unit": "fold"}]}, {"molecule": "GGTGGGGAGG (double strand) [GRP site (ZFP1727)]", "values": [{"measurement": "activity", "setting": "[3]", "result": 14, "unit": "fold"}]}, {"molecule": "C[C@]12CC[C@@H]3c4ccc(O)cc4CC[C@H]3[C@@H]1CC[C@H]2O", "note": "[17alpha-estradiol]", "values": [{"measurement": "activation of ERα and ERβ as known from the literature", "setting": "ERα and ERβ", "result": "preferentially activates ERα"}]}]}
